According to patent publication US20190153065A1 (ALBERT EINSTEIN COLLEGE OF MEDICINE, published 2019):

Assays:
[1] = biological target: T1, wild-type mouse PD-L1 mCherry (full-length mouse PD-L1 with C-terminal mCherry, on HEK 293 cells) (mouse, UniProt Q9EP73 19-290); assay: cell microarray challenged with Fc fusion protein
T1 construct: whole, on cells; also called wild type PD-L1; mPD-L1 mCherry; not shown: C-terminal mCherry (Clontech N1 mCherry vector)

[2] = biological target: T2, PD-L1 mutant D122A (mouse PD-L1-mCherry fusion) (mouse, UniProt Q9EP73 19-290); assay: microbead FACS binding assay: protein A microbeads loaded with Fc fusion, HEK 293 cells displaying the PD-L1-mCherry mutant
T2 construct: whole, on cells; not shown: C-terminal mCherry (Clontech N1 mCherry vector)
T2 sequence (Q9EP73 19-290 D122A): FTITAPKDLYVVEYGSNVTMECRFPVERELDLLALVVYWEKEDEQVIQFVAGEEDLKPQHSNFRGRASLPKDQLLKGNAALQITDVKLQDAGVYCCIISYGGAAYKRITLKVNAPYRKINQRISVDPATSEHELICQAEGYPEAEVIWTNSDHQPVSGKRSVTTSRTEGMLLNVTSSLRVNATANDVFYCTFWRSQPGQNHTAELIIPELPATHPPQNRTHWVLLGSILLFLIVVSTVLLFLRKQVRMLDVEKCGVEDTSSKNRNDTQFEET
Method: (§1) PD-L1 mCherry mutant constructs were transiently transfected into HEK 293S cells and subsequently challenged with protein A microbeads (Milltenyi) pre-saturated with a 4:1 mixture of PD-1 Fc-fusion and FITC-Fc protein. A total Fc protein to bead ratio of 5 ug/10 uL microbeads was utilized on the basis of a previous report from Genentech (16). The FITC-Fc served to make the otherwise non-fluorescent microbeads show green fluorescence. For each titration experiment, 500 μL of protein A microbeads were loaded with a mixture of 10 μg fluorescein isothiocyanate (FITC)-Fc and 40 μg of either PD-1-Fc or B7-1-Fc protein in a total volume of 5 mL 1× phosphate buffered saline (PBS). The beads were incubated overnight (˜16 hours) at 4° C. Loaded beads were stored for up to two weeks prior to use. Initial experiments determined that 75 μL of the loaded beads were sufficient to saturate 150,000 cells transfected with wild type PD-L1, (transfection efficiency being consistently 60-70%). For titration experiments, sets of wild type and mutant PD-L1 constructs were transfected in 24-well tissue culture plates containing 1 mL of suspension HEK-293 cells. Three days post transfection cells were counted, diluted to 1×10⁶ cell/mL with 1×PBS with 2% BSA. 150K cells (150 μL) were transferred to Eppendorf tubes, and 75 μL of loaded microbeads added along with an additional 100 μL 1×PBS with 2% bovine serum albumin (BSA). Reactions were mixed end over end for 1 hour at 4° C., 4′,6-diamidino-2-phenylindole (DAPI) was added and samples were immediately analyzed by flow cytometry on a BD Aria III cytometer. Data were analyzed by gating first for live cells (DAPI negative) then for mCherry positive cells (PD-L1 expression). The percentage of mCherry positive cells that were FITC positive (microbeads bound) was used as “percent bound”. For each experiment, the percent bound was normalized to wild type binding.
(§2) These cells were probed by flow cytometry for their ability to bind either FITC-loaded microbeads decorated with wild type PD-1 Ig-fusion or wild type B7-1 Ig-fusion proteins (FIG. 7B).

[3] = biological target: T3, PD-L1 mutant Y123R (mouse PD-L1-mCherry fusion) (mouse, UniProt Q9EP73 19-290); assay: as above
T3 construct: whole, on cells; not shown: C-terminal mCherry (Clontech N1 mCherry vector)
T3 sequence (Q9EP73 19-290 Y123R): as the sequence (Q9EP73 19-290 D122A) above, with A104D, Y105R counted along it
Method: as §1, §2

[4] = biological target: T4, PD-L1 mutant Y123A (mouse PD-L1-mCherry fusion) (mouse, UniProt Q9EP73 19-290); assay: as above
T4 construct: whole, on cells; not shown: C-terminal mCherry (Clontech N1 mCherry vector)
T4 sequence (Q9EP73 19-290 Y123A): as the sequence (Q9EP73 19-290 D122A) above, with A104D, Y105A counted along it
Method: as §1, §2

[5] = biological target: T5, PD-L1 mutant K124A (mouse PD-L1-mCherry fusion) (mouse, UniProt Q9EP73 19-290); assay: as above
T5 construct: whole, on cells; not shown: C-terminal mCherry (Clontech N1 mCherry vector)
T5 sequence (Q9EP73 19-290 K124A): as the sequence (Q9EP73 19-290 D122A) above, with A104D, K106A counted along it
Method: as §1, §2

[6] = biological target: T6, PD-L1 mutant K124D (mouse PD-L1-mCherry fusion) (mouse, UniProt Q9EP73 19-290); assay: as above
T6 construct: whole, on cells; not shown: C-terminal mCherry (Clontech N1 mCherry vector)
T6 sequence (Q9EP73 19-290 K124D): as the sequence (Q9EP73 19-290 D122A) above, with A104D, K106D counted along it
Method: as §1, §2

[7] = biological target: T7, PD-L1 mutant R125A (mouse PD-L1-mCherry fusion) (mouse, UniProt Q9EP73 19-290); assay: as above
T7 construct: whole, on cells; not shown: C-terminal mCherry (Clontech N1 mCherry vector)
T7 sequence (Q9EP73 19-290 R125A): as the sequence (Q9EP73 19-290 D122A) above, with A104D, R107A counted along it
Method: as §1, §2

[8] = biological target: T8, PD-L1 mutant R125D (mouse PD-L1-mCherry fusion) (mouse, UniProt Q9EP73 19-290); assay: as above
T8 construct: whole, on cells; not shown: C-terminal mCherry (Clontech N1 mCherry vector)
T8 sequence (Q9EP73 19-290 R125D): as the sequence (Q9EP73 19-290 D122A) above, with A104D, R107D counted along it
Method: as §1, §2

[9] = biological target: T9, PD-L1 mutant L53D (mouse PD-L1-mCherry fusion) (mouse, UniProt Q9EP73 19-290); assay: as above
T9 construct: whole, on cells; not shown: C-terminal mCherry (Clontech N1 mCherry vector)
T9 sequence (Q9EP73 19-290 L53D): as the sequence (Q9EP73 19-290 D122A) above, with L35D, A104D counted along it
Method: as §1, §2

[10] = biological target: T10, PD-L1 mutant L53R (mouse PD-L1-mCherry fusion) (mouse, UniProt Q9EP73 19-290); assay: as above
T10 construct: whole, on cells; not shown: C-terminal mCherry (Clontech N1 mCherry vector)
T10 sequence (Q9EP73 19-290 L53R): as the sequence (Q9EP73 19-290 D122A) above, with L35R, A104D counted along it
Method: as §1, §2

[11] = biological target: T11, PD-L1 mutant I115D (mouse PD-L1-mCherry fusion) (mouse, UniProt Q9EP73 19-290); assay: as above
T11 construct: whole, on cells; not shown: C-terminal mCherry (Clontech N1 mCherry vector)
T11 sequence (Q9EP73 19-290 I115D): as the sequence (Q9EP73 19-290 D122A) above, with I97D, A104D counted along it
Method: as §1, §2

[12] = biological target: T12, PD-L1 mutant I116R (mouse PD-L1-mCherry fusion) (mouse, UniProt Q9EP73 19-290); assay: as above
T12 construct: whole, on cells; not shown: C-terminal mCherry (Clontech N1 mCherry vector)
T12 sequence (Q9EP73 19-290 I116R): as the sequence (Q9EP73 19-290 D122A) above, with I98R, A104D counted along it
Method: as §1, §2

[13] = biological target: T13, PD-L1 mutant G119R (mouse PD-L1-mCherry fusion) (mouse, UniProt Q9EP73 19-290); assay: as above
T13 construct: whole, on cells; not shown: C-terminal mCherry (Clontech N1 mCherry vector)
T13 sequence (Q9EP73 19-290 G119R): as the sequence (Q9EP73 19-290 D122A) above, with G101R, A104D counted along it
Method: as §1, §2

[14] = biological target: T14, PD-L1 mutant G120A (mouse PD-L1-mCherry fusion) (mouse, UniProt Q9EP73 19-290); assay: as above
T14 construct: whole, on cells; not shown: C-terminal mCherry (Clontech N1 mCherry vector)
T14 sequence (Q9EP73 19-290 G120A): as the sequence (Q9EP73 19-290 D122A) above, with G102A, A104D counted along it
Method: as §1, §2

[15] = biological target: T15, PD-L1 mutant G120R (mouse PD-L1-mCherry fusion) (mouse, UniProt Q9EP73 19-290); assay: as above
T15 construct: whole, on cells; not shown: C-terminal mCherry (Clontech N1 mCherry vector)
T15 sequence (Q9EP73 19-290 G120R): as the sequence (Q9EP73 19-290 D122A) above, with G102R, A104D counted along it
Method: as §1, §2

[16] = biological target: T16, PD-L1 mutant A121D (mouse PD-L1-mCherry fusion) (mouse, UniProt Q9EP73 19-290); assay: as above
T16 construct: whole, on cells; not shown: C-terminal mCherry (Clontech N1 mCherry vector)
T16 sequence (Q9EP73 19-290 A121D): as the sequence (Q9EP73 19-290 D122A) above, with A103D, A104D counted along it
Method: as §1, §2

[17] = biological target: T17, PD-L1 mutant A121R (mouse PD-L1-mCherry fusion) (mouse, UniProt Q9EP73 19-290); assay: as above
T17 construct: whole, on cells; not shown: C-terminal mCherry (Clontech N1 mCherry vector)
T17 sequence (Q9EP73 19-290 A121R): as the sequence (Q9EP73 19-290 D122A) above, with A103R, A104D counted along it
Method: as §1, §2

[18] = biological target: T18, PD-L1 mutant D122R (mouse PD-L1-mCherry fusion) (mouse, UniProt Q9EP73 19-290); assay: as above
T18 construct: whole, on cells; not shown: C-terminal mCherry (Clontech N1 mCherry vector)
T18 sequence (Q9EP73 19-290 D122R): as the sequence (Q9EP73 19-290 D122A) above, with A104R counted along it
Method: as §1, §2

[19] = biological target: T1, wild-type mouse PD-L1 mCherry …; assay: FACS competition: mPD-1 mIgG2a titrated (0.01-250 nM dimer) against 5 nM mB7-1 hIgG1 (competitor) on HEK 293 cells expressing mPD-L1 mCherry; one-site competition fit, three experiments
Excerpt: A mB7-1 hIgG1 Fc fusion construct was cloned which used the same erythropoietin (EPO) leader, mB7-1 ecto domain boundaries and linker sequence as the original mIgG2a construct described above. This construct was transiently expressed in HEK 293 cells and purified as described above for the other Fc fusion proteins used. For the completion experiment, HEK 293 suspension cells were transiently transfected with wild-type mPD-L1 mCherry. Three days post transfection transfected cells were counted and diluted to 1×10⁶ cells/mL. B7-1 hIgG1 fusion protein was added to 100,000 transfected cells at a final concentration of 5 nM dimer, in either the absence or presence of increasing concentrations of PD-1 mIgG2a protein (0.01-250 nM dimer). Parallel experiments were carried out in which purified mIgG2a isotype control was titrated at equivalent molar concentrations. Protein binding was carried out at 22° C. shaking at 900 rpm on a 96-well plate shaker for 1 hour. […] Cells were subsequently washed two more times with 1×PBS with 0.2% BSA. […] Competition data was normalized to 5 nM B7-1 binding in the absence of mPD-1 and plotted as a function of log [mPD-1]. Average data from three independent experiments was fit using a one-site competition model equation Y=min+(max−min)/(1+10^{x-log EC50}).
A) Cartoon depiction of the competition assay. […]

T1 sequence (Q9EP73 19-290): as the sequence (Q9EP73 19-290 D122A) above, with A104D counted along it

B1: wild-type mB7-1 Fc (residues D37-K245, mIgG2a-10×His) (Fc fusion)
chain: DVDEQLSKSVKDKVLLPCRYNSPHEDESEDRIYWQKHDKVVLSVIAGKLKVWPEYKNRTLYDNTTYSLIILGLVLSDRGTYSCVVQKKERGTYEVKHLALVKLSIKADFSTPNITESGNPSADTKRITCFASGGFPKPRFSWLENGRELPGINTTISQDPESELYTISSQLDFNTTRNHTIKCLIKYGDAHVSEDFTWEKPPEDPPDSK
modifications: C-terminal mIgG2a Fc-10×His (dimerising carrier), not in the letters
notes: In the microbead assay it was loaded on protein A microbeads; also called B7-1 Fc-fusion; B7-1 Ig-fusion; not shown: the linker between ectodomain and Fc, the mouse IgG2a Fc and the 10xHis tag behind it
B1: binds [1]; binds [2]; binds [3]. B1: binds [4]; binds [5]; binds [6]. B1: binds [7]; binds [8]; no binding [9]. B1: no binding [10]; no binding [11]; no binding [12]. B1: no binding [13]; no binding [14]; no binding [15]. B1: no binding [16]; no binding [17]; no binding [18].

B2: wild-type mPD-1 Fc (residues L25-Q167, mIgG2a-10×His) (Fc fusion, mouse, not shown: a dimerising Fc or GST)
chain (part 1 of 2): LEVPNGPWRSLTFYPAWLTVSEGANATFTCSLSNWSEDLMLNWNRLSPSNQTEKQAAFCNGLSQPVQDARFQIIQLPNRHDFHMNILDTRRNDSGIYLCGAISLHPKAKIEESPGAELVVTERILETSTRYPSPSPKPEGRFQ
chain (part 2 of 2): HHHHHHHHHH
notes: range 25-167; In the microbead assay it was loaded on protein A microbeads; also called PD-1 Fc-fusion; PD-1 Ig-fusion
B2: no binding [9]; no binding [10]; no binding [11]. B2: no binding [12]; no binding [13]; no binding [14]. B2: no binding [15]; no binding [16]; no binding [17]. The binding result [18] was “no binding” and the EC50 [19] was 8.3 nM.
